The results in this text go back to article PMC5327383, “Pneumococcal galactose catabolism is controlled by multiple regulators acting on pyruvate formate lyase” (Scientific Reports, 2017).

Several values for one entry are separate records, joined by “and”; a condition that tells them apart may be missing. Equal entries are not always repeated.

Experiment in all cases: EMSA
On the technique in general: Mobility shift assays separate free from complexed probe on a gel.

Data set [1] has as its target CcpA (Streptococcus pneumoniae D39) (UniProt A0A0H2ZQ65). Particulars: 5X FY buffer: 20 mM Tris-HCl pH 7.5, 30 mM KCl, 1 mM DTT, 1 mM EDTA, 10% glycerol; room temperature 20 min, 20 ul, ~30 ng DNA, 0.1-0.5 uM protein; 8%.
Data set [2] has as its target T1, GlnR (Streptococcus pneumoniae D39) (UniProt A0A0H2ZRB1).
T1 sequence: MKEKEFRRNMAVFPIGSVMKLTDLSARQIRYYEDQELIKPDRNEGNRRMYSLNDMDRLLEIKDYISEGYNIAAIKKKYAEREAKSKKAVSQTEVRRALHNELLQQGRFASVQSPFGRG
Particulars: 5X FY buffer: 20 mM Tris-HCl pH 7.5, 30 mM KCl, 1 mM DTT, 1 mM EDTA, 10% glycerol; room temperature 20 min, 20 ul, ~30 ng DNA, 0.1-0.5 uM protein; 8%.

The test system of data set [3] is CcpA (Streptococcus pneumoniae D39). Particulars: 5X FY buffer: 20 mM Tris-HCl pH 7.5, 30 mM KCl, 1 mM DTT, 1 mM EDTA, 10% glycerol, room temperature 20 min, 20 ul, ~30 ng DNA, 0.1-0.5 uM protein, 8%.
In data set [4] the test system is GlnR (Streptococcus pneumoniae D39). Particulars: 5X FY buffer: 20 mM Tris-HCl pH 7.5, 30 mM KCl, 1 mM DTT, 1 mM EDTA, 10% glycerol, room temperature 20 min, 20 ul, ~30 ng DNA, 0.1-0.5 uM protein, 8%.
Data set [5] has as its target T2, GntR (Streptococcus pneumoniae D39) (UniProt A0A0H2ZQS8).
T2 sequence: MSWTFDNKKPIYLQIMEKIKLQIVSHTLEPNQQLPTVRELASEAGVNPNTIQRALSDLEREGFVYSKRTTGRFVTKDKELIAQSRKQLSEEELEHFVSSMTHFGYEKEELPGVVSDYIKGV
Particulars: 5X FY buffer: 20 mM Tris-HCl pH 7.5, 30 mM KCl, 1 mM DTT, 1 mM EDTA, 10% glycerol; room temperature 20 min, 20 ul, ~30 ng DNA, 0.1-0.5 uM protein; 8%.

For the substance “ATGACAGAAGAAATCAAAAATCTGCAGGCACAGGATTATGATGCCAGTCAAATTCAAGTTTTAGAGGGCTTAGAGGCTGTTCGTATGCGTCCAGG (double strand) [gyrB]”, the binding entry in data set [1] and in data set [2] was “no binding” each time.
PpflB: the dissociation constant (Kd) (in general, a measure of binding affinity in units of concentration) in data set [3] (10 mM sodium formate) is 350 nM; in data set [3] (no formate) it was 1270 nM; in data set [4] (10 mM sodium formate), 790 nM; in data set [4] (no formate) it was 310 nM.
For the substance “GTTACCTTCCTTGAAAACGTTTTATAGTTTTATTATATCACGACTTGAAGGAAAAACAAGATTTTTGCCTATTTTTTAGAAAGCAATCTGTTTTTC (double strand) [PpflA]”, the figures for the binding entry in data set [1], in data set [2] and in data set [5] were “binds”, “binds” and “no binding”, respectively.
On to “GTGAAAATTTCGTTTTCATATTTCTACTTATTCCATTCTATCACTAATTGTAAACACTTTCAAGTGTTTTTTGAAGATTGATTGAAAAAATTTCA (double strand) [PccpA]”, for which the binding result in data set [1] is “binds”; in data set [2], “binds”; in data set [5] it was “no binding”.
Take “CAGTTTGAAATAAAATATAGACTGTTTTAGAAAAGAAAGTGTAAAAATAGGGATTTTGCACTTGTTGAAATCGGTTACTTTATGGTATACTTGTC (double strand) [PpflB]”: the Kd in data set [1] is 1270 nM and 350 nM; in data set [2], 310 nM. For the same substance, the binding result in data set [5] was “binds”.
With “TAATCTGATGATAGATTGAAAATGAAATTGAAAAACAGATTGCTTTCTAAAAAATAGGCAAAAATCTTGTTTTTCCTTCAAGTCGTGATATAATAA (double strand) [PpflA(cre1-)]”, the binding entry in data set [1] and in data set [2] was “binds more weakly” throughout.
Take “AAGTGCAAAATCCCTATTTTTACACTTTCTTTTCTAAAACAGTCTATATTTTATTTCAAACTGTATTATATTTTTGAAAAAAATAAAGTCCTTTT (double strand) [PpflB(cre1-)]”: the binding result in data set [1] and in data set [2] was “no binding” each time.
